Laboratory results taken from the DeepSol protein solubility set.

Experiment: soluble on expression in E. coli; label from the status in PepcDB or PDB records

Row | Sequence | soluble on expression in E. coli
1 | AIASPQDTCCPPDSWPALKVDYKPKGKLEDIGKGLKAYVVGNGPRAVIALNDVFGIESGHSKEICDAIADKGFTVVFPDVFRGKPLQVSDMSKLFDELPGWAKQFDYEPALRKDVVEVILPYLHDKLGFKSNDQIALAGFCWGAFMLFHLAGDTKLPGGPFACGVSFHPSVQIEGVFQRDPLQLIDRATCPQLLLPSAGEPDYMKEEGDAIKKLRAKPFGASCGVKTFPSMQHGWVNRGDRNDPQVVKEAQEALQLAVDFMMRHTKPKA | soluble
2 | AIASVAFVPDWLRGKAEVNQETIQRLLEENDQLIRCIVEYQNKGRGNECVQYQHVLHRNLIYLATIADASPTSTSKAME | soluble
3 | AIATSCHIAEEHIQKVAIFGGTHGNELTGVFLVKHWLENGAEIQRTGLEVKPFITNPRAVKKCTRYIDCDLNRIFDLENLGKKMSEDLPYEVRRAQEINHLFGPKDSEDSYDIIFDLHNTTSNMGCTLILEDSRNNFLIQMFHYIKTSLAPLPCYVYLIEHPSLKYATTRSIAKYPVGIEVGPQPQGVLRADILDQMRKMIKHALDFIHHFNEGKEFPPCAIEVYKIIEKVDYPRDENGEIAAIIHPNLQDQDWKPLHPGDPMFLTLDGKTIPLGGDCTVYPVFVNEAAYYEKKEAFAKTTKLTLNAKSIRCCLH | soluble
4 | AIFELMNEAYAPLYGFSALSQGQINQYIKMYLPIVDLRMVTLVTDAEDKLVAVGISMPSLSEALQKAKGRLLPMGWYHLLKVLFLHKYPPMLDLLLVAVKPEYQNKGVNALLFSDLIPVYQQLGFKYA | not soluble
5 | AIREFNTKEKVFNEFTAVFDVLNHLPAFAKLHLANSMSVRYANTLGISQRNAEVFANRGTSGIDGVISTAYGYALKTSQLVTIITGDLAFFYDRNAFWNNYKPSNLRVVLLNNHGGGIFRMIDGPSALPELDELFETKQTLSARYLATEHGLEYTLCKNLNGLNQALESFFQPSMFGKILEIETDSVKN | not soluble
6 | AKHLFTSESVSEGHPDKIADQISDAVLDAILEQDPKARVACETYVKTGMVLVGGEITTSAWVDIEEITRNTVREIGYVHSDMGFDANSCAVLSAIGKQSPDINQGVDRADPLEQGAGDQGLMFGYATNETDVLMPAPITYAHRLVQRQAEVRKNGTLPWLRPDAKSQVTFQYDDGKIVGIDAVVLSTQHSEEIDQKSLQEAVMEEIIKPILPAEWLTSATKFFINPTGRFVIGGPMGDCGLTGRKIIVDTYGGMARHGGGAFSGKDPSKVDRSAAYAARYVAKNIVAAGLADRCEIQVSYAIGVAEPTSIMVETFGTEKVPSEQLTLLVREFFDLRPYGLIQMLDLLHPIYKETAAYGHFGREHFPWEKTDKAQLLRDAAGLK | soluble
7 | AKIGLFFGSNTGKTRKVAKSIKKRFDDETMSDALNVNRVSAEDFAQYQFLILGTPTLGEGELPGLSSDAENESWEEFLPKIEGLDFSGKTVALFGLGDQVGYPENYLDALGELYSFFKDRGAKIVGSWSTDGYEFESSEAVVDGKFVGLALDLDNQSGKTDERVAAWLAQIAPEFGLSL | soluble
8 | AKQDYYEILGVSKTAEEREIRKAYKRLAMKYHPDRNQGDKEAEAKFKEIKEAYEVLTDSQKRAAYDQYGHAAFEQGGMGGGGFGGGADFSDIFGDVFGDIFGGGRGR | soluble
9 | ALHEATRDLLGADSPSTVAAEVGAAIESILEFRINVIRVHRDGQLQPVHVNDKAEELLAERPTYDVGEGFPGEAFEEQQASVYTDIRDHDGGTALEPVVSWLYVPISEYGIISVGQTDPDAFDETDLNLVQIIASNAEVALQRLQKERELQRENDRLEQFASTVS | not soluble
10 | ALLITKKCINCDMCEPECPNEAISMGDHIYEINSDKCTECVGHYETPTCQKVCPIPNTIVKDPAHVETEEQLWDKFVLMHHADKI | soluble
11 | AMTGSDGTKILTITRPDTHGTKTSLTARLYSDTTKKATLDTIFTVVTSPDSDKAKMWGHMPETVTAADGAVFKRPLLLKELSSTSGRTAIAEDNEDWAQFTQAQAISTSSNGCGSEYVPSQAGLESLYEANRGNAMKTVQGWPVASSYLSSTTGSSSLEQRDFKAVNLSSGTSSIIPSATKELLTCQ | not soluble
12 | ANMPPGSVEQVAAKVVPSVVMLETDLGRQSEEGSGIILSAEGLILTNNHVIAAAAKPPLGSPPPKTTVTFSDGRTAPFTVVGADPTSDIAVVRVQGVSGLTPISLGSSSDLRVGQPVLAIGSPLGLEGTVTTGIVSALNRPVSTTGEAGNQNTVLDAIQTDAAINPGNSGGALVNMNAQLVGVNSAIATLGADSADAQSGSIGLGFAIPVDQAKRIADELISTGKASHASLGVQVTNDKDTLGAKIVEVVAGGAAANAGVPKGVVVTKVDDRPINSADALVAAVRSKAPGATVALTFQDPSGGSRTVQVTLGKAEQLEHHHHHH | soluble
13 | APNVDLHCHSTVSDGSMPPAAVARRAHANGVDVWALTDHDEIGGVAEAAQAAAALGMRFVAGVEISVTWAGLTVHIVGLRVDPANEALVQGLRDTRAGRAARAVQIGERLAGLGMPGAYEGALPFAGNPELISRTHFARFLVEAGYCPDVQTVFNKYLGDDCPGHVPMQWASLAEAVGWIRGAGGCAVIAHPGRYKYSPMQFDALYDEFLQLGGTGIEVVTGSHTSEEARRYAEVARRHGFLASRGSDFHSPTESRVDLGRLPPLPPDLKPVWHDW | not soluble
14 | APPKAVLKLEPPWINVLQEDSVTLTCQGARSPESDSIQWFHNGNLIPTHTQPSYRFKANNNDSGEYTCQTGQTSLSDPVHLTVLSEWLVLQTPHLEFQEGETIMLRCHSWKDKPLVKVTFFQNGKSQKFSRLDPTFSIPQANHSHSGDYHCTGNIGYTLFSSKPVTITVQVHHHHHH | soluble
15 | APRSVAMVVPQGSDIRQLSDLRGKRIALNKGSNVHWLLLQILEDAGLGLNDVRVVYTPPKYPLTASDYLAVDAWMMWDPLLSDAEHTGELRVVASGEGRVNNHQFYLSRRDYLAQHGDIMRRLLTELTHTGQFIDSHRGEAARLLSAELGI | not soluble
16 | APTMTEFVGTAGGDTVGLVIANVDSLLHKHLGLDNTCRSIGIISARVGAPAQMMAADEAVKGTNTEVATIELPRDTKGGAGHGIFIVLKAADVSDARRAVEIALKQTDKYLGNVYLCDAGHLEVQYTARASLIFEKAFGAPSGQAFGIMHAAPAGVGMIVADTALKTADVKLITYGSPTNGVLSYTNEILITISGDSGAVLQSLTAARKAGLSILRSMGQDPVSMSKPTF | soluble
17 | AQDMVSPPPPIADEPLTVNTGIYLIECYSLDDKAETFKVNAFLSLSWKDRRLAFDPVRSGVRVKTYEPEAIWIPEIRFVNVENARDADVVDISVSPDGTVQYLERFSARVLSPLDGRRTESDSQTLHIYLIVRSVDTRNIVLAVDLEKVGKNDDVFLTGWDIESFTAVVKPANFALEDRLESKLDYQLRISRQGGHHHHHH | soluble
18 | AQEPVKGPVSTKPGSCPIILIRCAMLNPPNRCLKDTDCPGIKKCCEGSCGMACFVPQ | soluble
19 | AQPGAEVLAIDGITVKDTRGIETVRDLSLSVKAGEIVGIAGVDGNGQSELIEAVTGLRKTDSGTITLNGKQIQNLTPRKITESGIGHIPQDRHKHGLVLDFPIGENILLQSYYKKPYSALGVLHKGEMYKKARSLITEYDVRTPDEYTHARALSGGNQQKAIIGREIDRNPDLLIAAQPTRGLDVGAIEFVHKKLIEQRDAGKAVLLLSFELEEIMNLSDRIAVIFEGRIIASVNPQETTEQELGLLMAGSTQKEAGKANG | not soluble
20 | ARICDVFSRFDETPLASASVAQVHAACLKTGEEVVVKVVRPGLKPIIGQDLAWLFILARMAERVSADARLLHPVQVVMDYEKTIYDELDLLREAANSSQLRRNFEGSDLLYVPQVYWDWCR | not soluble
21 | ARKLFVLDTNVLLHDPSSLFRFEEHDIFLPMMTLEELDHQKKGMSEVARNARQVSRSLDSLVQDADNLDDGLALNALGNKDATGRLMFQTTAIHSTLPSDLPMGKADNQILGVVRALQERHPQREVVLVSKDINMRLKARALGMAAEDYYNDHVLEDTDLMYS | not soluble
22 | ARKRFAGLEPVEMRMEVKAGDHGNTIINDVYSNDVYSLTLALDFQRRRTAETCLKKVLILSDILQSGMPPEELYRHVAGQLQVYALDFFVGIGEEIASHRTCFAGMSAVFFKDVATFLTSGEIERFSNSCILLKGARKYRFEQITERLVQQVH | not soluble
23 | ARSEKRVPMTRLRKRVAERLLEAKNSTAMLTTFNEVNMKPIMDLRKQYGEAFEKRHGIRLGFMSFYVKAVVEALKRYPEVNASIDGDDVVYHNYFDVSMAVSTPRGLVTPVLRDVDTLGMADIEKKIKELAVKGRDGKLTVEDLTGGNFTITNGGVFGSLMSTPIINPPQSAILGMHAIKDRPMAVNGQVEILPMMYLALSYDHRLIDGRESVGFLVTIKELLEDPTRLLLDV | soluble
24 | ARSSRFTRQADETLTDSEGSGLQFINFDEGSASNPIIARDQEGSGQMYDEEGSGNTLLFDSETPIQVMNVTGTEAEPTDSKVFNQSINITDSDVETLVIKVHLPQKTTSQLLDDLKDDTAQQTNPINTLDTAVSLTSMLNELLGKIQDATTQ | not soluble
25 | ARVDQTPRSVTKETGESLTINCVLRDASYALGSTCWYRKKSGEGNEESISKGGRYVETVNSGSKSFSLRINDLTVEDGGTYRCGLGVAGGYCDYALCSSRYAECGDGTAVTVN | soluble
26 | ASEKVGMNLVTAQGVGQSIGTVVIDETEGGLKFTPHLKALPPGEHGFHIHANGSCQPAIKDGQAVAAEAAGGHLDPQNTGKHEGPEGQGHLGDLPVLVVNNDGIATEPVTAPRLKSLDEVKDKALMIHVGGDNMSDQPKPLGGGGTRYACGVIK | soluble
27 | ASNVHRVQQVIHAAIATNRKLAVAGRSMVKVVSIAERLGYLEAPDDLFIDIEEVSKYDDERVAIITTGSQGEPMSALSRMAKGAHRQITITENDTVIIAATPIPGNERSVSTIVDLLHRIGADVIFGHGKVHASGHGSAEELKLMLNLMRPKFFVPIHGEFRMQHAHKELAKSVGIREEAIFLVDKGEVVEFRNGQGRKAGKVPSGNVLIDGLGVGDVGNIVLRDRRLLSKDGILVVVVTLNKQSGTILSGPNIISRGFVYVRESEKLIEEANELVTETLKKCVTENVNEWSSLKSNVREVLSRFLFEKTKRRPMILPIIME | soluble
28 | ASQFFFNQRTHLVSDVIDGAIIASPWNNLARLESDPAIRIVVRRDLNKNNVAVISGGGSGHEPAHVGFIGKGMLTAAVCGDVFASPSVDAVLTAIQAVTGEAGCLLIVKNYTGDRLNFGLAAEKARRLGYNVEMLIVGDDISLPDNKHPRGIAGTILVHKIAGYFAERGYNLATVLREAQYAASNTFSLGVALSSCHLPQETDAAPRHHPGHAELGMGIHGEPGASVIDTQNSAQVVNLMVDKLLAALPETGRLAVMINNLGGVSVAEMAIITRELASSPLHSRIDWLIGPASLVTALDMKGFSLTAIVLEESIEKALLTEVETSNWPTPVPPREITCVVSSHASARVEFQPSANALVAGIVELVTATLSDLETHLNALDAKVGDGDTGSTFAAAAREIASLLHRQQLPLNNLATLFALIGERLTVVMGGSSGVLMSIFFTAAGQKLEQGANVVEALNTGLAQMKFYGGADEGDRTMIDALQPALTSLLAQPKNLQAAFDAAQAGAERTCLSSKANAGRASYLSSESLLGNMDPGAQALAMVFKALAESELG | soluble
29 | ASTQGISEDLYNRLVEMATISQAAYADLCNIPSTIIKGEKIYNAQTDINGWILRDDTSKEIITVFRGTGSDTNLQLDTNYTLTPFDTLPQCNDCEVHGGYYIGWISVQDQVESLVKQQASQYPDYALTVTGHSLGASMAALTAAQLSATYDNVRLYTFGEPRSGNQAFASYMNDAFQVSSPETTQYFRVTHSNDGIPNLPPAEQGYAHGGVEYWSVDPYSAQNTFVCTGDEVQCCEAQGGQGVNDAHTTYFGMTSGACTW | soluble
